Laboratory results taken from IntAct's records for PubMed 17641687.

B1: Kinesin-like protein KIF16B (Homo sapiens), Q96L93 (parent)
chain: MASVKVAVRVRPMNRREKDLEAKFIIQMEKSKTTITNLKIPEGGTGDSGRERTKTFTYDFSFYSADTKSPDYVSQEMVFKTLGTDVVKSAFEGYNACVFAYGQTGSGKSYTMMGNSGDSGLIPRICEGLFSRINETTRWDEASFRTEVSYLEIYNERVRDLLRRKSSKTFNLRVREHPKEGPYVEDLSKHLVQNYGDVEELMDAGNINRTTAATGMNDVSSRSHAIFTIKFTQAKFDSEMPCETVSKIHLVDLAGSERADATGATGVRLKEGGNINKSLVTLGNVISALADLSQDAANTLAKKKQVFVPYRDSVLTWLLKDSLGGNSKTIMIATISPADVNYGETLSTLRYANRAKNIINKPTINEDANVKLIRELRAEIARLKTLLAQGNQIALLDSPTALSMEEKLQQNEARVQELTKEWTNKWNETQNILKEQTLALRKEGIGVVLDSELPHLIGIDDDLLSTGIILYHLKEGQTYVGRDDASTEQDIVLHGLDLESEHCIFENIGGTVTLIPLSGSQCSVNGVQIVEATHLNQGAVILLGRTNMFRFNHPKEAAKLREKRKSGLLSSFSLSMTDLSKSRENLSAVMLYNPGLEFERQQREELEKLESKRKLIEEMEEKQKSDKAELERMQQEVETQRKETEIVQLQIRKQEESLKRRSFHIENKLKDLLAEKEKFEEERLREQQEIELQKKRQEEETFLRVQEELQRLKELNNNEKAEKFQIFQELDQLQKEKDEQYAKLELEKKRLEEQEKEQVMLVAHLEEQLREKQEMIQLLRRGEVQWVEEEKRDLEGIRESLLRVKEARAGGDEDGEELEKAQLRFFEFKRRQLVKLVNLEKDLVQQKDILKKEVQEEQEILECLKCEHDKESRLLEKHDESVTDVTEVPQDFEKIKPVEYRLQYKERQLQYLLQNHLPTLLEEKQRAFEILDRGPLSLDNTLYQVEKEMEEKEEQLAQYQANANQLQKLQATFEFTANIARQEEKVRKKEKEILESREKQQREALERALARLERRHSALQRHSTLGMEIEEQRQKLASLNSGSREQSGLQASLEAEQEALEKDQERLEYEIQQLKQKIYEVDGVQKDHHGTLEGKVASSSLPVSAEKSHLVPLMDARINAYIEEEVQRRLQDLHRVISEGCSTSADTMKDNEKLHNGTIQRKLKYERMVSRSLGANPDDLKDPIKISIPRYVLCGQGKDAHFEFEVKITVLDETWTVFRRYSRFREMHKTLKLKYAELAALEFPPKKLFGNKDERVIAERRSHLEKYLRDFFSVMLQSATSPLHINKVGLTLSKHTICEFSPFFKKGVFDYSSHGTG

Variants of: B1
Conditions: with eea1_human EEA1, Q15075
Chain of eea1_human EEA1, Q15075 (Q15075 whole entry): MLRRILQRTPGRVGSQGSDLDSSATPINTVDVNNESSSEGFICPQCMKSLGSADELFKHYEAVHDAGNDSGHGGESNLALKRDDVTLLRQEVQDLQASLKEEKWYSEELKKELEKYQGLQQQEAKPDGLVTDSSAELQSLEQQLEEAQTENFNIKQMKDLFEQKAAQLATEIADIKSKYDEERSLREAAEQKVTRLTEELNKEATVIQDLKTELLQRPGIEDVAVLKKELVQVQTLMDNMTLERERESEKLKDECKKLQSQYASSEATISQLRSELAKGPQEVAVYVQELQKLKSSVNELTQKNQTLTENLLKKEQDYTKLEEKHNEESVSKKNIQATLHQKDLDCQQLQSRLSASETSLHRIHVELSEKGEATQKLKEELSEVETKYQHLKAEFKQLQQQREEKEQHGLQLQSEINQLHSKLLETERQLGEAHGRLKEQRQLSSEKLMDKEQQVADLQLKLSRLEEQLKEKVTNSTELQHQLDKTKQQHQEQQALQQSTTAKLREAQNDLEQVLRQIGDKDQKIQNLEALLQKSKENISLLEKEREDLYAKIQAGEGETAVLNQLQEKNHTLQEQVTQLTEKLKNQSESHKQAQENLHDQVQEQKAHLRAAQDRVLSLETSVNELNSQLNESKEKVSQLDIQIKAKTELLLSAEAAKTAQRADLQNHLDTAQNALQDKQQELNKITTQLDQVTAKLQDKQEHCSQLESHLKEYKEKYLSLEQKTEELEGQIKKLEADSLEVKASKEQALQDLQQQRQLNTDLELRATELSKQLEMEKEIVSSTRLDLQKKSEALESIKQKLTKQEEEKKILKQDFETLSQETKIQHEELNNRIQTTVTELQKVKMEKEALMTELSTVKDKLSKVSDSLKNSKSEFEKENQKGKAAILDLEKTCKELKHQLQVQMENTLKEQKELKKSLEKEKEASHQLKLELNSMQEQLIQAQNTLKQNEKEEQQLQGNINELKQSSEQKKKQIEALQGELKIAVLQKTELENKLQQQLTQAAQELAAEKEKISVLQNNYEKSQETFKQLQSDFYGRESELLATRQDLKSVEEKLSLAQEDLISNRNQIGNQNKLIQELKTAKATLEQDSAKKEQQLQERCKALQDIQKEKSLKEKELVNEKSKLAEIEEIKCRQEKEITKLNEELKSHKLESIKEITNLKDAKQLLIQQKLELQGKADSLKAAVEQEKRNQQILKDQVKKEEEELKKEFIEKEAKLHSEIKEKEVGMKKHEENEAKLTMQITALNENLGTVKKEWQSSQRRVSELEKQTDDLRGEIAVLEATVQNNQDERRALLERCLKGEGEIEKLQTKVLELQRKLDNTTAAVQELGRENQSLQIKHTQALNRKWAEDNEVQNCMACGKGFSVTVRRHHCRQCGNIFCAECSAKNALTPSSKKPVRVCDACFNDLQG

| effect of a mutation on the interaction | Variant |
| --- | --- |
| disrupting interaction | L1248A |
| disrupting interaction | F1249A |
